Columns and labels:
[1] = target: G-actin (monomeric actin from chicken muscle) (chicken) (UniProt P68139); experiment: ITC
[2] = target: G-actin (monomeric actin) (chicken) (UniProt P68139); experiment: ITC

| Substance | stoichiometry N [1] | Kd [2] | stoichiometry N [2] |
| --- | --- | --- | --- |
| Tarp_(726–825) (translocated actin recruiting phosphoprotein, G-actin binding region) (domain or fragment) | 1 |  |  |
| Tarp_(726–825) (translocated actin recruiting phosphoprotein, residues 726–825, containing the G-actin binding domain) (from UniProt Q6GX35 726-825) (domain or fragment) |  | 102 nM | 1 |
